From US20050202532A1, “Helical synthetic peptides that stimulate cellular cholesterol efflux” (The Regents of the University of California, published 2005)

Tests used:
[1] = target: ATP-binding cassette transporter A1 (ABCA1), endogenous in J774 macrophages (Homo sapiens (Human)) (UniProt O95477)
[2] = target: ATP-binding cassette transporter A1 (ABCA1), endogenous in J774 macrophages (Homo sapiens (Human), UniProt O95477); assay: cell-based or functional assay

concentration giving maximal cholesterol efflux [1] | potency in mediating ABCA1-dependent cholesterol efflux against the 1/9 chimera [2] | Molecule
10 µg/mL |  | full-length recombinant apoA-I (His-tagged) (from UniProt P02647) (ligand)
 | 2 fold (against the 1/9 chimera) | Ac-PALEDLRQGLLPVLESFKVSFLSALEEYTKKLN-NH2 [9/10 peptide, aa 209-241 of apoA-I (33-mer)]
